Reference: the nanobody polyreactivity screen of Harvey et al. (2022)

Test: yeast display, Sf9 membrane polyspecificity reagent, FACS + sequencing; frameworks hold sequencing errors
Outline: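 Using colony PCR, genes from sorted yeast display clones were amplified, then sequenced on MiSeq at 2 × 250 and filtered by CDR length. The clones had been stained with 10% biotinylated, detergent-solubilized Sf9 membrane reagent for 1 hour at 4 °C and sorted by FACS into low and high (top ~1%) gates on anti-HA and streptavidin fluorescence. Polyreactivity labels come from the gate of origin.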

## QVQLVESGGGLVQAGGSLRLSCDASGRTFYVYAMGWYRQAPGKERELVAAISSSGGSTYYADSVKGRFTISRDNAKNTVYLQMNSLKPEDTAVYYCAVVTPRYYGDTKYDYWGQGTQVTVSS
  polyreactivity (PSR sort gate): high polyreactivity

## QVQLVESGGGLVQAGGSLRLSCDASGSIFAWYAMGWYRQAPGKERELVATITWSGGSTYYADSVKGRFTISRDNANNTVYLQMNSLKQEDTAVYYCAADRVWPYYQYDYWGQGTQVSVSS
  polyreactivity (PSR sort gate): low polyreactivity

## QVQLVESGGGLVQAGGSLRLSCDASGSIFAYYAMRWYRPAPGKERELVAAISSRGGNTYYADSVKGRFTISRDYAKNTVYLQMNSLKPEDNAVYYCAAYSASYTFDYWGQGTQVTVSS
  polyreactivity (PSR sort gate): high polyreactivity

## QVQLVESGGGLVQAGGSLRLSCDASGSIFDRYVMGWYRQAPGKERELVAAITTSGDGTYYADSVKGRFTISRDNAKNSVYLQMNSLKREDTAVYYCAAVRRSWKYSTSDYWGQGTQVTVSS
  polyreactivity (PSR sort gate): low polyreactivity

## QVQLVESGGGLVQAGGSLRLSCDASGSIFPVYAMGWYRQAPGKERELVAAISSRGGRTYYADSVKGRFTISRDNAKNTVYLQMNSLKPEDNAVYYCATDYATYYRLPSQYDYWGQGTQVTVSS
  polyreactivity (PSR sort gate): low polyreactivity

## QVQLVESGGGLVQAGGSLRLSCDASGSIFPYNAMGWYRQAPGKEREFVAAINLSGRSTNYADSVKGRFTISRDNAKNTVYLQMNSLKPEDTAVYYCNAPFVYFWPLNFDYWGQGTQVTVSS
  polyreactivity (PSR sort gate): low polyreactivity

## QVQLVESGGGLVQAGGSLRLSCDASGSIFRGNAMGCYRQAPGKERELVPDITSGSNTYYADSVKGRFTISRDNAKNTVYLQMNSLKPEDTAVYYCAADGVAYPWWSVYNSFDYWGQGTQVTVSS
  polyreactivity (PSR sort gate): low polyreactivity

## QVQLVESGGGLVQAGGSLRLSCDASGSIFRGNAMGWYRQAPGKERELVATITNGGSTNYADSVKGRFTISRDNAKNTVYLQMNSLKPEDTAVYYCNADHSYHIASTRHVDYWGQGTQVTVSS
  polyreactivity (PSR sort gate): low polyreactivity

## QVQLVESGGGLVQAGGSLRLSCDASGSIFRSYAMGWYRQAPGKERELVASITRSSGSTYYADSVKGRFTISRDNAKNTVYLQMNSLKPEDTAVYYCAAYTGVRGYYYWGQGTQVTVSS
  polyreactivity (PSR sort gate): high polyreactivity

## QVQLVESGGGLVQAGGSLRLSCDASGSIFRYYGMGWYRQAPGKEREMVAVISYRGGSTYYADSVKGRFTISRDNAKNTVYLQMNSLKPEDTAVYYCIADDPSKLGYEHDYWGQGTQVTVSS
  polyreactivity (PSR sort gate): low polyreactivity

## QVQLVESGGGLVQAGGSLRLSCDASGSILVAYAIGWYRQAPGKEREFVAAISSVGNTYYADSVKGRFTISRDNAKNTVYLQMNSLKPEDTAVYYCNAVYRVWYAEWSTVGSPHDYWGQGTQVTVSS
  polyreactivity (PSR sort gate): low polyreactivity

## QVQLVESGGGLVQAGGSLRLSCDASGSTFGIYAMGCYRQAPGKERELVAANSRSGDSTYYADSVKGRFTISRDNAKNTVDLQMNSLKPEDTAVYYCAADSYRLRYWAVTTHRVQYDYWGQGTQVTVSS
  polyreactivity (PSR sort gate): low polyreactivity

## QVQLVESGGGLVQAGGSLRLSCDASGSTFGPYTMGWYRQAPGKERELVATISSGGSTYYADSVKGRFTISRDNAKNTVYLQMNSLKPEETAVYYCAARYWSIYDYWGPGTQVTVSS
  polyreactivity (PSR sort gate): low polyreactivity

## QVQLVESGGGLVQAGGSLRLSCDASGSTFISYAMGWFRQAPGKERELVAAISSGGGRTSYADSVKGRFTISRDNEKNTVYLQMNSLKPEDTAVYYCNTKKLPYAEGYWGQGTQVTVSS
  polyreactivity (PSR sort gate): low polyreactivity

## QVQLVESGGGLVQAGGSLRLSCDASGSTFRGNAMGWYRQAPGKEREFVASISRRGGRTNYADSVKGRFTISRDNAKNTVYLQMNSVKPEDTAVYYCAATTVPLGDYWGLGTQVTVSS
  polyreactivity (PSR sort gate): high polyreactivity

## QVQLVESGGGLVQAGGSLRLSCDASGSTFSDYAMGWYRQAPGKERELVAAISDSGSGTYYADSVKGRFTISRDNAKNTVYLQMNSLKPEDTAVYYCNTDPRFAMDWGQGTQVTVSS
  polyreactivity (PSR sort gate): low polyreactivity

## QVQLVESGGGLVQAGGSLRLSCDASGSTFTGYAMGWYRQAPGKERELVAAISRSGGSTSYADSVKGRFTISRDNAKNTVYLQMNSLKPEDTAGYYCAAQVQGTTRAKQRGGIGELDYWGQGTQVTVSS
  polyreactivity (PSR sort gate): low polyreactivity

## QVQLVESGGGLVQAGGSLRLSCDASGSTFWYAMGWYIKAPGKEMDLVAAITARGGRTYYADSVKGRFTISRDNAKNTVYLQMNSLKPEDTAVYYCARLSYAGGQWIIGKYDYWGQGTQVTVSS
  polyreactivity (PSR sort gate): high polyreactivity

## QVQLVESGGGLVQAGGSLRLSCDASGSTFYLYKGWYRQAPGKERELVAAITSGGRTYYADSVKGRFTISRDNAKNSVYLQMNSLKPVVSAVYYCARPYSRAYDYWGEGTQVTVSS
  polyreactivity (PSR sort gate): high polyreactivity

## QVQLVESGGGLVQAGGSLRLSCDASGSTLVVNAMGWYRPAPGKERELVAAISDGGSTNYADSVKGRFTISRDNAMNTVYLQMNSLKPEDTADYYCAKDCETEVIDDYWGQGTQVTVSS
  polyreactivity (PSR sort gate): low polyreactivity

## QVQLVESGGGLVQAGGSLRLSCDASVSIFVANAMGWSRQATGKERELVAAITGRGSRTYYADSVKGRFTISRDNAKNTVYLQMNSLKPEDTAVYYCADRYTNYGGYYWGQGTQVTVSS
  polyreactivity (PSR sort gate): high polyreactivity

## QVQLVESGGGLVQAGGSLRLSCGASGAIFSRYAMGWSRPAPGKERQLVAAITSSGGSTYYADSVKGRFTISRDNAKNTVYLQMNSLKPEDTAVYYCATQYAGPWGEYDYWGQGTQVTVSS
  polyreactivity (PSR sort gate): low polyreactivity

## QVQLVESGGGLVQAGGSLRLSCGASGFSFTRTAMGWYRQAPGKERELVAAISRGGSTNYADSVKGRFTISRDNAKITVYFQMNSLNPEDPSLYFCAKVRTRATPGVDYYYWGQGSQVTVSS
  polyreactivity (PSR sort gate): high polyreactivity

## QVQLVESGGGLVQAGGSLRLSCGASGFTFDVYAMGWYRQAPGKERELVARIRWSGGSTSYADSVKGRFTISRDNAKNTVYVQMNSLKPEDTAVYYCNTRRIYVNSGRGDYWGQGTKVTVSS
  polyreactivity (PSR sort gate): low polyreactivity

## QVQLVESGGGLVQAGGSLRLSCGASGFTFQFYDRGGYRQAPGKEREFVATITWRAGSTYSADSVKGRFTISRDNAKNTVYLQMNSLKPEDTAVYYCNADYYRHSLDYDYVGYDYWGQGTQVTVSS
  polyreactivity (PSR sort gate): low polyreactivity

## QVQLVESGGGLVQAGGSLRLSCGASGFTFRPYAMGWYRQAPGKERELVAAITSGDSTNYADSVKGRFTISCDNAKNTVYLQMNSLKPEDTAVYYCAADSTGRPSVSYDYWGQGTQVTVSS
  polyreactivity (PSR sort gate): low polyreactivity

## QVQLVESGGGLVQAGGSLRLSCGASGRIFGPYTMGWARQGPGKERELVARISRRGGSTYYADSVKGRFTISRDNAKNTVYLQMNSLKPEDTAVYYCARSQAVYDGWFAKFGYWGQGTQVTVSS
  polyreactivity (PSR sort gate): low polyreactivity

## QVQLVESGGGLVQAGGSLRLSCGASGRIFTRYAMGWYRQAPGKERELVAAISYGGGGTYYADSVKGRFTISRDNAKNTVYLQINSLKPEDTAVYYCATDDPLSQINEQCMDYWGQGTQVTVSS
  polyreactivity (PSR sort gate): low polyreactivity

## QVQLVESGGGLVQAGGSLRLSCGASGRTFYRYDMGWYRQAPGKERELVASITSGGNTNYADSVKGRFTISRDNAKNTVYLQMNSLKPEDTAVYYCAKEWYRVQHYRLITEFDYWGQGTQVTVSS
  polyreactivity (PSR sort gate): high polyreactivity

## QVQLVESGGGLVQAGGSLRLSCGASGSIFKYYAMGWYREARGKERELVAAITWSGGRTNYADSVKGRFTISRDNAKNTVYLQMNSLKPEDTAVYYCAATRRRYRPYEYWGLGTQVTVSS
  polyreactivity (PSR sort gate): high polyreactivity

## QVQLVESGGGLVQAGGSLRLSCGASGSTFAYYTMGWYRQAPAKERELVAAITSGGRTSYAESVKGRFTISRDNAKNTVYLQMNSLKPEDTAVYYCAKGRKPGYYYWGQGTQVTVSS
  polyreactivity (PSR sort gate): high polyreactivity

## QVQLVESGGGLVQAGGSLRLSCGASGSTFDHYAMGWYRQAPGKERELVAAITRSGGSTYYADSVKGRFTISRDNAKNTVYIQMNSLKPEDTAVYYCNARRWITSDYWGQGTQVTVSS
  polyreactivity (PSR sort gate): high polyreactivity
